To fix the notation:
B2: bacteriophage φ6 protein P1 (capsid shell), wild type (natural protein, UniProt P11126 1-769, looked up)
chain: MFNLKVKDLNGSARGLTQAFAIGELKNQLSVGALQLPLQFTRTFSASMTSELLWEVGKGNIDPVMYARLFFQYAQAGGALSVDELVNQFTEYHQSTACNPEIWRKLTAYITGSSNRAIKADAVGKVPPTAILEQLRTLAPSEHELFHHITTDFVCHVLSPLGFILPDAAYVYRVGRTATYPNFYALVDCVRASDLRRMLTALSSVDSKMLQATFKAKGALAPALISQHLANAATTAFERSRGNFDANAVVSSVLTILGRLWSPSTPKELDPSARLRNTNGIDQLRSNLALFIAYQDMVKQRGRAEVIFSDEELSSTIIPWFIEAMSEVSPFKLRPINETTSYIGQTSAIDHMGQPSHVVVYEDWQFAKEITAFTPVKLANNSNQRFLDVEPGISDRMSATLAPIGNTFAVSAFVKNRTAVYEAVSQRGTVNSNGAEMTLGFPSVVERDYALDRDPMVAIAALRTGIVDESLEARASNDLKRSMFNYYAAVMHYAVAHNPEVVVSEHQGVAAEQGSLYLVWNVRTELRIPVGYNAIEGGSIRTPEPLEAIAYNKPIQPSEVLQAKVLDLANHTTSIHIWPWHEASTEFAYEDAYSVTIRNKRYTAEVKEFELLGLGQRRERVRILKPTVAHAIIQMWYSWFVEDDRTLAAARRTSRDDAEKLAIDGRRMQNAVTLLRKIEMIGTTGIGASAVHLAQSRIVDQMAGRGLIDDSSDLHVGINRHRIRIWAGLAVLQMMGLLSRSEAEALTKVLGDSNALGMVVATTDIDPSL
B3: bacteriophage φ6 protein P1 with the E390A substitution (natural protein, UniProt P11126 1-769, looked up)
chain: MFNLKVKDLNGSARGLTQAFAIGELKNQLSVGALQLPLQFTRTFSASMTSELLWEVGKGNIDPVMYARLFFQYAQAGGALSVDELVNQFTEYHQSTACNPEIWRKLTAYITGSSNRAIKADAVGKVPPTAILEQLRTLAPSEHELFHHITTDFVCHVLSPLGFILPDAAYVYRVGRTATYPNFYALVDCVRASDLRRMLTALSSVDSKMLQATFKAKGALAPALISQHLANAATTAFERSRGNFDANAVVSSVLTILGRLWSPSTPKELDPSARLRNTNGIDQLRSNLALFIAYQDMVKQRGRAEVIFSDEELSSTIIPWFIEAMSEVSPFKLRPINETTSYIGQTSAIDHMGQPSHVVVYEDWQFAKEITAFTPVKLANNSNQRFLDVAPGISDRMSATLAPIGNTFAVSAFVKNRTAVYEAVSQRGTVNSNGAEMTLGFPSVVERDYALDRDPMVAIAALRTGIVDESLEARASNDLKRSMFNYYAAVMHYAVAHNPEVVVSEHQGVAAEQGSLYLVWNVRTELRIPVGYNAIEGGSIRTPEPLEAIAYNKPIQPSEVLQAKVLDLANHTTSIHIWPWHEASTEFAYEDAYSVTIRNKRYTAEVKEFELLGLGQRRERVRILKPTVAHAIIQMWYSWFVEDDRTLAAARRTSRDDAEKLAIDGRRMQNAVTLLRKIEMIGTTGIGASAVHLAQSRIVDQMAGRGLIDDSSDLHVGINRHRIRIWAGLAVLQMMGLLSRSEAEALTKVLGDSNALGMVVATTDIDPSL

What all share (experiment): cryo-EM structure
The target in data set [1] is B3.
Data set [2] deals with the molecule itself.
Data set [3] concerns the molecule itself. The source holds these as a separate data set.
The target of data set [4] is B2.

Where two headings read alike, the source gives them in different places.

B1: bacteriophage φ6 protein P2 (RNA-dependent RNA polymerase) (enzyme, UniProt P11124 1-665, looked up)
chain: MPRRAPAFPLSDIKAQMLFANNIKAQQASKRSFKEGAIETYEGLLSVDPRFLSFKNELSRYLTDHFPANVDEYGRVYGNGVRTNFFGMRHMNGFPMIPATWPLASNLKKRADADLADGPVSERDNLLFRAAVRLMFSDLEPVPLKIRKGSSTCIPYFSNDMGTKIEIAERALEKAEEAGNLMLQGKFDDAYQLHQMGGAYYVVYRAQSTDAITLDPKTGKFVSKDRMVADFEYAVTGGEQGSLFAASKDASRLKEQYGIDVPDGFFCERRRTAMGGPFALNAPIMAVAQPVRNKIYSKYAYTFHHTTRLNKEEKVKEWSLCVATDVSDHDTFWPGWLRDLICDELLNMGYAPWWVKLFETSLKLPVYVGAPAPEQGHTLLGDPSNPDLEVGLSSGQGATDLMGTLLMSITYLVMQLDHTAPHLNSRIKDMPSACRFLDSYWQGHEEIRQISKSDDAILGWTKGRALVGGHRLFEMLKEGKVNPSPYMKISYEHGGAFLGDILLYDSRREPGSAIFVGNINSMLNNQFSPEYGVQSGVRDRSKRKRPFPGLAWASMKDTYGACPIYSDVLEAIERCWWNAFGESYRAYREDMLKRDTLELSRYVASMARQAGLAELTPIDLEVLADPNKLQYKWTEADVSANIHEVLMHGVSVEKTERFLRSVMPR
Take B1: in data set [1], the binding result is given as “binds”.
For B2, in data set [2], the binding result was “binds”.
Consider B3, for which the binding result in data set [3] is recorded as “binds”.

B4: bacteriophage φ6 protein P4 (packaging motor, packaging NTPase) (enzyme, UniProt P11125 1-332, looked up)
chain: MPIVVTQAHIDRVGIAADLLDASPVSLQVLGRPTAINTVVIKTYIAAVMELASKQGGSLAGVDIRPSVLLKDTAIFTKPKAKSADVESDVDVLDTGIYSVPGLARKPVTHRWPSEGIYSGVTALMGATGSGKSITLNEKLRPDVLIRWGEVAEAYDELDTAVHISTLDEMLIVCIGLGALGFNVAVDSVRPLLFRLKGAASAGGIVAVFYSLLTDISNLFTQYDCSVVMVVNPMVDAEKIEYVFGQVMASTVGAILCADGNVSRTMFRTNKGRIFNGAAPLAADTHMPSMDRPTSMKALDHTSIASVAPLERGSVDTDDRNSAPRRGANFSL
Take B4: the binding result in data set [2], in data set [4] and in data set [1] was “binds” throughout.
